Experiments:
MOLM13 tumors = assay: Human T cells and Molm13 tumor cells injected subcutaneously into NSG mice; assay type: in vivo, NOD/SCID gamma (NSG) knockout mice
Description: A dose of 0.004 mg/kg and higher was active in the MOLM13 model.

Human CD3ε/δ = Human CD3ε/δ (Homo sapiens, UniProt P07766); assay: Binding of DART-A to CD3 (ka, kd, KD)
[1] = Capillary isoelectric focusing (cIEF), charge variants; assay type: physicochemical; details: for cIEF % AV (acidic variants) / cIEF % BV (basic variants) / cIEF % Main Peak: 0.1 mg/mL solution, Stabilizer 2
Description: cIEF analysis was performed to characterize drug product charge variants. The configuration included a iCE System with Alcott 720NV Autosampler. Samples were prepared to a final concentration of 0.1 mg/mL and centrifuged at 5±3° C. for 40 minutes prior to analysis.

Cynomolgus CD123-His = assay: Binding of DART-A to CD123 (ka, kd, KD); parameters: species or system cynomolgus monkey
[2] = Differential scanning calorimetry (DSC), thermal stability; assay type: physicochemical; details: DP buffer with or without PS80 (150 mM NaCl, 10 mM sodium phosphate, pH 6.0)
Description: Differential Scanning calorimetry measures the energetics of protein unfolding during a temperature ramp. Peaks represent apparent melting temperatures and the area under the peaks represent the enthalpy of the thermal transition. Data were collected for duplicate samples over 20° C. to 90° C. range using temperature ramp rate of 60° C./hour.

U937 cells = assay: Activity against CD123-negative targets; assay type: cell-based
pH = assay type: physicochemical; details: for pH: normal saline IV bag with Stabilizer 2
Visual appearance = assay type: physicochemical; details: for Appearance / Appearance, Particulates: 1250 ng/mL dosing solution
[3] = FLR SE-HPLC protein recovery (monomer peak area); assay type: physicochemical
Description: Four levels of PS80 were tested during this study to evaluate the blocking activity of the surfactant. Briefly, test stabilizer solutions (10 mM sodium phosphate at pH 6.0, 150 mM sodium chloride, 1.6 mg/mL BA and 0, 0.05, 0.1, or 0.2 mg/mL PS80) were added to a normal saline containing IV bag. After thorough mixing, the DART-A DP formulation was added to the same IV bag. The bag containing the dosing solution was incubated at 25±2° C. and samples were collected at 0, 24 and 48 hours (the longest proposed administration time). Each sample was analyzed using FLR/SE-HPLC and verified using ELISA to quantify DART-A protein recovery.
For both low and high concentration infusions, samples were collected at 24, 48, and 72 hours from sampling point #5. […] The data was calculated against the expected TO sample to obtain the DART-A recovery. […] Similar to other binding ELISA assays, these ranges are within the typical variation of this type of bioassay (50%-150%).
FLR SE-HPLC analysis was performed to measure protein purity, monomer purity and protein stability. The FLR SE-HPLC configuration included a fluorescence (FLR) detector (λX=280 nm, λE=340 nm), a mobile phase composition of 350 mM Mobile Phase (175 mMNaH2PO4, 175 mMNa2SO, pH 6.3) and a TosoBio TSK G3000SWXL size exclusion column. Samples were diluted to 0.1 mg/mL and stored at 5±3° C. for 24 to 96 hours prior to analysis. Eight μg of protein (or 100 μL is sample concentration was below 0.1 mg/mL) was injected for each 30-minute run. HMW and LMW species and monomer peaks were monitored.

TF-1 = assay: Redirected killing of target cell line; assay type: cell-based
Kasumi-3 = assay: Redirected killing of target cell line; assay type: cell-based, human
[4] = Post Infusion (Infusion Time = 96 Hrs)
[5] = Post Storage (Time = 72 Hrs), room temperature
[6] = 10 ng/mL dosing solution, Stabilizer 2, Post Infusion (Infusion Time = 48 Hrs)
[7] = 10 ng/mL dosing solution, Stabilizer 2, Post Storage (T = 72 Hrs), room temperature
[8] = 10 ng/mL dosing solution, Stabilizer 2, T = 0
[9] = 20 ng/mL dosing solution, Stabilizer 2, Post Infusion (Infusion Time = 96 Hrs)
[10] = 20 ng/mL dosing solution, Stabilizer 2, Post Storage (T =72 Hrs), room temperature
[11] = 20 ng/mL dosing solution, Stabilizer 2, T = 0
[12] = Stabilizer 2, Post Infusion (Infusion Time = 48 Hrs)
[13] = Stabilizer 2, Post Storage (T = 72 Hrs), room temperature

Chain of Human CD3ε/δ (P07766 23-126 limits assumed): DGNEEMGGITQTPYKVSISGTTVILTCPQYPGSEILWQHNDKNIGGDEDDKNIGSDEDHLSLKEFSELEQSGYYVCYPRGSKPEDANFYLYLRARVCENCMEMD
Chain of Human CD3ε/δ (P04234 22-105 partner limits assumed): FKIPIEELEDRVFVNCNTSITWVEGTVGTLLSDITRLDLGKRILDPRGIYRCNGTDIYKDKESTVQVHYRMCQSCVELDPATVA

B1: DART-A: sequence-optimized CD123×CD3 bispecific diabody; chains SEQ ID NO:42 and SEQ ID NO:44 covalently bonded by a disulfide bond (protein)
chain 1: QAVVTQEPSLTVSPGGTVTLTCRSSTGAVTTSNYANWVQQKPGQAPRGLIGGTNKRAPWTPARFSGSLLGGKAALTITGAQAEDEADYYCALWYSNLWVFGGGTKLTVLGGGGSGGGGEVQLVQSGAELKKPGASVKVSCKASGYTFTDYYMKWVRQAPGQGLEWIGDIIPSNGATFYNQKFKGRVTITVDKSTSTAYMELSSLRSEDTAVYYCARSHLLRASWFAYWGQGTLVTVSSGGCGGGEVAALEKEVAALEKEVAALEKEVAALEK
chain 2: DFVMTQSPDSLAVSLGERVTMSCKSSQSLLNSGNQKNYLTWYQQKPGQPPKLLIYWASTRESGVPDRFSGSGSGTDFTLTISSLQAEDVAVYYCQNDYSYPYTFGQGTKLEIKGGGSGGGGEVQLVESGGGLVQPGGSLRLSCAASGFTFSTYAMNWVRQAPGKGLEWVGRIRSKYNNYATYYADSVKDRFTISRDDSKNSLYLQMNSLKTEDTAVYYCVRHGNFGNSYVSWFAYWGQGTLVTVSSGGCGGGKVAALKEKVAALKEKVAALKEKVAALKE
modifications: interchain disulfide bond; First Polypeptide Chain of DART-A; Second Polypeptide Chain of DART-A
MOLM13 tumors; 0.16, 0.5, 0.2, 0.1, 0.02 and 0.004 mg/kg dose levels
  MOLM13 tumor growth: significantly inhibited
MOLM13 tumors; mouse, in vivo
  dose active in the MOLM13 model: ≥ 4 µg/kg
Human CD3ε/δ
  ka (± SD): 5.7 (± 0.6) × 10^5 M^−1s^−1
  kd (± SD): 5.0 (± 0.9) × 10^−3 s^−1
Human CD3ε/δ; read-out: KD (± SD)
  Kd: 9 ± 2.3 nM
[1]; 0.1 mg/mL in Stabilizer 2 dosing solution, 72-hour RT storage and administration
  charge heterogeneity by cIEF: minor changes within the variability of the analytical method
[1]; [4]
  cIEF % AV (acidic variants): 31.4%
  cIEF % BV (basic variants): 3.4%
  cIEF % Main Peak: 65.2%
[1]; [5]
  cIEF % AV (acidic variants): 29.1%
  cIEF % BV (basic variants): 3.9%
  cIEF % Main Peak: 67.0%
[1]; T = 0 Hrs
  cIEF % AV (acidic variants): 28.3%
  cIEF % BV (basic variants): 4.4%
  cIEF % Main Peak: 67.3%
Cynomolgus CD123-His
  ka (± SD): 1.5 (± 0.3) × 10^6 M^−1s^−1
  kd (± SD): 4.0 (± 0.7) × 10^−4 s^−1
[2]
  melting temperature (Tm), DSC: 64 °C
U937 cells
  activity against CD123-negative targets: No activity
pH; 10 ng/mL dosing solution, Post Infusion (Infusion Time = 48 Hrs)
  pH: 8.1
pH; 10 ng/mL dosing solution, Post Storage (T = 72 Hrs), room temperature
  pH: 8.1
pH; 10 ng/mL dosing solution, T = 0
  pH: 8.1
pH; 20 ng/mL dosing solution, Post Infusion (Infusion Time = 96 Hrs)
  pH: 7.9
pH; 20 ng/mL dosing solution, Post Storage (T =72 Hrs), room temperature
  pH: 8.1
pH; 20 ng/mL dosing solution, T = 0
  pH: 8.1
pH; 1250 ng/mL dosing solution, Post Infusion (Infusion Time = 48 Hrs)
  pH: 8.0
pH; 1250 ng/mL dosing solution, Post Storage (T = 72 Hrs), room temperature
  pH: 8.0
pH; 1250 ng/mL dosing solution, T = 0
  pH: 8.0
pH; Stabilizer 2 dosing solutions
  changes in pH, visual appearance and osmolality post-infusion vs T=0: no significant changes in pH, visual appearance, and osmolality
Visual appearance; [6]
  Visual Appearance: C, L
  Visual Appearance, Particulates: FNP, FPP
Visual appearance; [7]
  Visual Appearance: C, L
  Visual Appearance, Particulates: FNP, FPP
Visual appearance; [8]
  Visual Appearance: C, L
  Visual Appearance, Particulates: FNP, FPP
Visual appearance; [9]
  Visual Appearance: C, L
  Visual Appearance, Particulates: FNP, FPP
Visual appearance; [10]
  Visual Appearance: C, L
  Visual Appearance, Particulates: FNP, FPP
Visual appearance; [11]
  Visual Appearance: C, L
  Visual Appearance, Particulates: FNP, FPP
Visual appearance; [12]
  Appearance: C, L
  Appearance, Particulates: FNP, FPP
Visual appearance; [13]
  Appearance: C, L
  Appearance, Particulates: FNP, FPP
Visual appearance; Stabilizer 2, T = 0
  Appearance: C, L
  Appearance, Particulates: FNP, FPP
Visual appearance; 0.1 mg/mL in Stabilizer 2 dosing solution, storage and administration
  Visual Appearance: No change in visual appearance
Visual appearance; Stabilizer 2 in saline bag, T=0, after 72 h storage and post infusion (48 or 96 hours)
  visual appearance of dosing solutions: clear, colorless with no visible particulates
[3]; Study 1, Stabilizer 1, dual-pump infusion RT, High (5000 ng/mL), Expected or Control (T0)
  DART-A Monomer Peak Area in SE-HPLC FLR: 1814623 EU * min
[3]; Study 1, Stabilizer 1, dual-pump infusion RT, High (5000 ng/mL), T = 24 hours
  DART-A Monomer Peak Area in SE-HPLC FLR: 1483536 EU * min
[3]; Study 1, Stabilizer 1, dual-pump infusion RT, High (5000 ng/mL), T = 48 hours
  DART-A Monomer Peak Area in SE-HPLC FLR: 1792023 EU * min
[3]; Study 1, Stabilizer 1, dual-pump infusion RT, High (5000 ng/mL), T = 72 hours
  DART-A Monomer Peak Area in SE-HPLC FLR: 1804667 EU * min
[3]; Study 1, Stabilizer 1, dual-pump infusion RT, Low (100 ng/mL), Expected or Control (T0)
  DART-A Monomer Peak Area in SE-HPLC FLR: 46006 EU * min
[3]; Study 1, Stabilizer 1, dual-pump infusion RT, Low (100 ng/mL), T = 24 hours
  DART-A Monomer Peak Area in SE-HPLC FLR: 37026 EU * min
[3]; Study 1, Stabilizer 1, dual-pump infusion RT, Low (100 ng/mL), T = 48 hours
  DART-A Monomer Peak Area in SE-HPLC FLR: 44708 EU * min
[3]; Study 1, Stabilizer 1, dual-pump infusion RT, Low (100 ng/mL), T = 72 hours
  DART-A Monomer Peak Area in SE-HPLC FLR: 49122 EU * min
[3]; Study 2, Stabilizer 1, cassette 25° C., 100 rpm, High (5000 ng/mL), T = 0
  DART-A Monomer Peak Area in SE-HPLC FLR: 41031471 EU * min
[3]; Study 2, Stabilizer 1, cassette 25° C., 100 rpm, High (5000 ng/mL), T = 24 hours
  DART-A Monomer Peak Area in SE-HPLC FLR: 40529514 EU * min
[3]; Study 2, Stabilizer 1, cassette 25° C., 100 rpm, High (5000 ng/mL), T = 48 hours
  DART-A Monomer Peak Area in SE-HPLC FLR: 41438367 EU * min
[3]; Study 2, Stabilizer 1, cassette 25° C., 100 rpm, High (5000 ng/mL), T = 72 hours
  DART-A Monomer Peak Area in SE-HPLC FLR: 41582544 EU * min
[3]; Study 2, Stabilizer 1, cassette 25° C., 100 rpm, Low (100 ng/mL), T = 0
  DART-A Monomer Peak Area in SE-HPLC FLR: 355660 EU * min
[3]; Study 2, Stabilizer 1, cassette 25° C., 100 rpm, Low (100 ng/mL), T = 24 hours
  DART-A Monomer Peak Area in SE-HPLC FLR: 379757 EU * min
[3]; Study 2, Stabilizer 1, cassette 25° C., 100 rpm, Low (100 ng/mL), T = 48 hours
  DART-A Monomer Peak Area in SE-HPLC FLR: 377121 EU * min
[3]; Study 2, Stabilizer 1, cassette 25° C., 100 rpm, Low (100 ng/mL), T = 72 hours
  DART-A Monomer Peak Area in SE-HPLC FLR: 394028 EU * min
[3]; Study 3, Stabilizer 1, cassette 37° C., 100 rpm, Low (100 ng/mL), T = 0
  DART-A Monomer Peak Area in SE-HPLC FLR: 397095 EU * min
[3]; Study 3, Stabilizer 1, cassette 37° C., 100 rpm, Low (100 ng/mL), T = 72 hours
  DART-A Monomer Peak Area in SE-HPLC FLR: 368950 EU * min
[3]; Study 3, Stabilizer 1, cassette 37° C., 100 rpm, second group, target concentration not given, T = 0
  DART-A Monomer Peak Area in SE-HPLC FLR: 41031489 EU * min
[3]; Study 3, Stabilizer 1, cassette 37° C., 100 rpm, second group, target concentration not given, T = 72 hours
  DART-A Monomer Peak Area in SE-HPLC FLR: 39005201 EU * min
TF-1
  Max % Killing: 46%
Kasumi-3
  Max % Killing: 94%
